Source: patent US20120023600A1 (Novartis, published 2012)
Changes are numbered by the printed parent chain.

T1: DKK1-APP (human, UniProt O94907 32-266)
T1 sequence: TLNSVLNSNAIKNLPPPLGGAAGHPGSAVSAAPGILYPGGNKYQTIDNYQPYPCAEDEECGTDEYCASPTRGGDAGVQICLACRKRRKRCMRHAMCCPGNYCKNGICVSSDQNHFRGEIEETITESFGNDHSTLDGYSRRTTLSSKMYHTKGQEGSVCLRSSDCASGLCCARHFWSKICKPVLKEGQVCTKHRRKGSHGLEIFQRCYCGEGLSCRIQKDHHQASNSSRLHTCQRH

T2: recombinant human DKK1 (human, UniProt O94907 32-266)
T2 sequence: T1 sequence

T3: mouse DKK1 (R&D Systems) (mouse, UniProt O54908 32-272)
T3 construct: Bought protein
T3 sequence (looked up): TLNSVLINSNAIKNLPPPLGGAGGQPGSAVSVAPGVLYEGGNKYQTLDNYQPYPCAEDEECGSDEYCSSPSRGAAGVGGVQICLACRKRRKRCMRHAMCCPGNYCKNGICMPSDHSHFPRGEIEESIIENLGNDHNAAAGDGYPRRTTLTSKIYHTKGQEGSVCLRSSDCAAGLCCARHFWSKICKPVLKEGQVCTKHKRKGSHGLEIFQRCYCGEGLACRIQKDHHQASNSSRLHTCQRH

T4: cynomolgus DKK1 (cynomolgus monkey (Macaca fascicularis), UniProt A0A7N9IE82 32-266)
T4 construct: also called cyno DKK1; monkey DKK1 (Novartis)
T4 sequence: T1 sequence with H114N, T150S, S166T

T5: biotinylated human DKK1 (human, UniProt O94907 32-266, biotinylated (sites not given))
T5 construct: also called biotinylated DKK1; human recombinant, biotinylated DKK1
T5 sequence: T1 sequence

B1: MOR04952 (Fab, V domains shown)
VH: QVQLVESGGGLVQPGGSLRLSCAASGFTFSSYWMSWVRQAPGKGLEWVSVISSDSSSTYYADSVKGRFTISRDNSKNTLYLQMNSLRAEDTAVYYCARHGIDFDHWGQGTLVTVSS
VL: DIALTQPASVSGSPGQSITISCTGTSSDLGGYNYVSWYQQHPGKAPKLMIYDVNNRPSGVSNRFSGSKSGNTASLTISGLQAEDEADYYCQSYDSPTDSVVFGGGTKLTVLG
B2: MOR04910 (Fab, V domains shown)
VH: B1 VH with V50G, S53Y, D54S, S55G, S57N, Y59H, H99M, F103L, H105Y
VL: DIALTQPASVSGSPGQSITISCTGTSSDVGGFNYVSWYQQHPGKAPKLMIHDGSNRPSGVSNRFSGSKSGNTASLTISGLQAEDEADYYCQSWDVSPITAVFGGGTKLTVLG
notes: also called anti-DKK1 FAb MOR04910
B3: MOR04948 (Fab, V domains shown)
VH: B1 VH with V50G, S53Y, D54S, S55G, S57N, Y59H, H99M, F103L, H105Y
VL: DIALTQPASVSGSPGQSITISCTGTSSDVGGFNYVSWYQQHPGKAPKLMIHDGSNRPSGVSNRFSGSKSGNTASLTISGLQAEDEADYYCQTWDSLSFFVFGGGTKLTVLG
B4: MOR04945 (Fab, V domains shown)
VH: B1 VH
VL: B1 VL with S92T, S95Q, P96I, T97K, D98L, V100A
B5: MOR04946 (Fab, V domains shown)
VH: QVQLVESGGGLVQPGGSLRLSCAASGFTFNNYGMTWVRQAPGKGLEWVSGISGSGSYTYYADSVKGRFTISRDNSKNTLYLQMNSLRAEDTAVYYCARTIYMDYWGQGTLVTVSS
VL: DIVLTQSPATLSLSPGERATLSCRASQNLFSPYLAWYQQKPGQAPRLLIYGASNRATGVPARFSGSGSGTDFTLTISSLEPEDFAVYYCQQYLTLPLTFGQGTKVEIKR
B6: MOR04913 (Fab, V domains shown)
VH: B5 VH
VL: B5 VL with L93M, K108N
B7: MOR04947 (Fab, V domains shown)
VH: QVQLVQSGAEVKKPGESLKISCKGSGYSFTNYYIGWVRQMPGKGLEWMGIIVPGTSYTIYSPSFQGQVTISADKSISTAYLQWSSLKASDTAMYYCARGIPFRMRGFDYWGQGTLVTVSS
VL: DIVLTQPPSVSGAPGQRVTISCSGSSSNIGSSFVNWYQQLPGTAPKLLIGNNSNRPSGVPDRFSGSKSGTSASLAITGLQSEDEADYYCASFDMGSPNVVFGGGTKLTVLG

These binders were tested against T1, DKK1-APP (assay: cell-based or functional assay).

Question: B1 was tested. Which “Luciferase reporter assay w/o Kremen; Activity in 15% Human serum (%)” value (“Luciferase reporter assay w/o Kremen … (%)” for short) did it give?
Answer: 60%

Question: With B2 as the binder, how does the “Luciferase reporter assay w/o Kremen … (%)” value read?
Answer: 90%

Question: For B3, which “Luciferase reporter assay w/o Kremen … (%)” value is on record?
Answer: 70%

Question: Which “Luciferase reporter assay w/o Kremen … (%)” value does the source give for B4 here?
Answer: 74%

Question: Which “Luciferase reporter assay w/o Kremen … (%)” value does the source give for B5 here?
Answer: 60%

Question: Which “Luciferase reporter assay w/o Kremen … (%)” value does the source give for B6 here?
Answer: 88%

The binders below were run against T2, recombinant human DKK1 (assay: cell-based or functional assay).

Question: With B1 as the binder, how does the “TCF/LEF luc assay w/Kremen: EC50” value read?
Answer: 600 pM

Question: B2 was tested. Which “TCF/LEF luc assay w/Kremen: EC50” value did it give?
Answer: 300 pM

Question: With B3 as the binder, how does the “TCF/LEF luc assay w/Kremen: EC50” value read?
Answer: 500 pM

Question: B4 was tested. Which “TCF/LEF luc assay w/Kremen: EC50” value did it give?
Answer: 500 pM

Question: With B5 as the binder, how does the “TCF/LEF luc assay w/Kremen: EC50” value read?
Answer: 200 pM

Question: With B6 as the binder, how does the “TCF/LEF luc assay w/Kremen: EC50” value read?
Answer: 500 pM

Question: For B7, which “TCF/LEF luc assay w/Kremen: EC50” value is on record?
Answer: 1700 pM

These binders were tested against T2, recombinant human DKK1 (assay: solution equilibrium titration (SET), ECL (BioVeris), Fab).
Protocol: (§1) Electrochemiluminescence (ECL) based affinity determination in solution and data evaluation are basically performed as described by Haenel et al., 2005. […] Subsequently, the concentration of unbound Fab is quantified by ECL detection using the M-SERIES® 384 analyzer (BioVeris Europe).
(§2) Affinities are calculated according to Haenel et al., 2005 Anal Biochem 339.1:182-184.

Question: How did the Kd turn out when B1 was run?
Answer: 100 pM

Question: For B2, which Kd is on record?
Answer: 24 pM

Question: B3 was tested. Which Kd did it give?
Answer: 57 pM

Question: Which Kd does the source give for B4 here?
Answer: 69 pM

Question: Which Kd does the source give for B5 here?
Answer: 25 pM

Question: Which Kd does the source give for B6 here?
Answer: 38 pM

Question: Which Kd does the source give for B7 here?
Answer: 32 pM

These binders were tested against T3, mouse DKK1 (R&D Systems) in the same assay as above.
Protocol: as §1, §2

Question: With B1 as the binder, how does the Kd read?
Answer: 71 pM

Question: With B2 as the binder, how does the Kd read?
Answer: 42 pM

Question: B3 was tested. Which Kd did it give?
Answer: 65 pM

Question: For B4, which Kd is on record?
Answer: 74 pM

Question: B5 was tested. Which Kd did it give?
Answer: 41 pM

Question: With B6 as the binder, how does the Kd read?
Answer: 44 pM

Question: For B7, which Kd is on record?
Answer: 30 pM

The binders below were run against T4, cynomolgus DKK1 in the same assay as above.
Protocol: as §1, §2

Question: Which Kd does the source give for B1 here?
Answer: 58 pM

Question: With B2 as the binder, how does the Kd read?
Answer: 37 pM

Question: With B3 as the binder, how does the Kd read?
Answer: 67 pM

Question: How did the Kd turn out when B4 was run?
Answer: 80 pM

Question: How did the Kd turn out when B5 was run?
Answer: 36 pM

Question: How did the Kd turn out when B6 was run?
Answer: 51 pM

Question: For B7, which Kd is on record?
Answer: 58 pM

These binders were tested against T5, biotinylated human DKK1 (assay: ELISA, biotinylated DKK1 on Neutravidin plates, Fab 1 ug/ml, anti-FLAG-AP detection).
Protocol: Binding specificity of the matured Fabs in the presence of 50% human serum (HS) is determined. […] After coating of the antigen, wells are blocked with TBS/0.05% Tween (TBS-T) supplemented with 1% BSA for 1 h at room temperature. Purified Fabs described above are diluted either in TBS/4% BSA or TBS/50% HS at a final concentration of 1 μg/ml, added to the coated and blocked wells and the plates are incubated for 1 h at room temperature. For detection, an anti-FLAG alkaline phosphatase (AP)-conjugated antibody (1:5000 dilution in TBST) and the fluorogenic substrate AttoPhos (Roche) are used. After each incubation, the wells of the microtiter plates are washed with TBST five times, except after the final incubation step with the labeled secondary antibody when wells are washed three times.
The fluorescence is measured in a TECAN Spectrafluor plate reader.

Question: For B1, which “Binding activity w/50% Human serum vs 4% BSA (%)” value is on record?
Answer: 100%

Question: How did the “Binding activity w/50% Human serum vs 4% BSA (%)” value turn out when B2 was run?
Answer: 84%

Question: Which “Binding activity w/50% Human serum vs 4% BSA (%)” value does the source give for B3 here?
Answer: 100%

Question: B4 was tested. Which “Binding activity w/50% Human serum vs 4% BSA (%)” value did it give?
Answer: 89%

Question: How did the “Binding activity w/50% Human serum vs 4% BSA (%)” value turn out when B5 was run?
Answer: 93%

Question: For B6, which “Binding activity w/50% Human serum vs 4% BSA (%)” value is on record?
Answer: 89%
